Measured values from the supplement of paper PMC5998384.

Key:
HeLa Kyoto [1] = assay: solubility change mitosis vs G1/S (difference of NP-40 vs SDS log2 ratios) (log2 ratio difference); higher = more soluble in mitosis
HeLa Kyoto [2] = assay: solubility in G1/S (NP-40 vs SDS abundance) (log2 ratio); higher = more soluble; conditions: cell cycle stage: G1/S
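Throughout, for solubility change mitosis vs G1/S (difference of NP-40 vs SDS log2 ratios): synchronized HeLa Kyoto cells (double thymidine block for G1/S, nocodazole release for mitosis), protein amounts in NP-40 versus SDS lysates quantified by mass spectrometry, three biological replicates.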
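Throughout, for solubility in G1/S (NP-40 vs SDS abundance): HeLa Kyoto cells arrested at G1/S by double thymidine block, proteins quantified by TMT10plex mass spectrometry in mild NP-40 versus SDS extracts, three biological replicates.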

Sequence: MRSRSNSGVRLDGYARLVQQTILCHQNPVTGLLPASYDQKDAWVRDNVYSILAVWGLGLAYRKNADRDEDKAKAYELEQSVVKLMRGLLHCMIRQVDKVESFKYSQSTKDSLHAKYNTKTCATVVGDDQWGHLQLDATSVYLLFLAQMTASGLHIIHSLDEVNFIQNLVFYIEAAYKTADFGIWERGDKTNQGISELNASSVGMAKAALEALDELDLFGVKGGPQSVIHVLADEVQHCQSILNSLLPRASTSKEVDASLLSVVSFPAFAVEDSQLVELTKQEIITKLQGRYGCCRFLRDGYKTPKEDPNRLYYEPAELKLFENIECEWPLFWTYFILDGVFSGNAEQVQEYKEALEAVLIKGKNGVPLLPELYSVPPDRVDEEYQNPHTVDRVPMGKLPHMWGQSLYILGSLMAEGFLAPGEIDPLNRRFSTVPKPDVVVQVSILAETEEIKTILKDKGIYVETIAEVYPIRVQPARILSHIYSSLGCNNRMKLSGRPYRHMGVLGTSKLYDIRKTIFTFTPQFIDQQQFYLALDNKMIVEMLRTDLSYLCSRWRMTGQPTITFPISHSMLDEDGTSLNSSILAALRKMQDGYFGGARVQTGKLSEFLTTSCCTHLSFMDPGPEGKLYSEDYDDNYDYLESGNWMNDYDSTSHARCGDEVARYLDHLLAHTAPHPKLAPTSQKGGLDRFQAAVQTTCDLMSLVTKAKELHVQNVHMYLPTKLFQASRPSFNLLDSPHPRQENQVPSVRVEIHLPRDQSGEVDFKALVLQLKETSSLQEQADILYMLYTMKGPDWNTELYNERSATVRELLTELYGKVGEIRHWGLIRYISGILRKKVEALDEACTDLLSHQKHLTVGLPPEPREKTISAPLPYEALTQLIDEASEGDMSISILTQEIMVYLAMYMRTQPGLFAEMFRLRIGLIIQVMATELAHSLRCSAEEATEGLMNLSPSAMKNLLHHILSGKEFGVERSVRPTDSNVSPAISIHEIGAVGATKTERTGIMQLKSEIKQVEFRRLSISAESQSPGTSMTPSSGSFPSAYDQQSSKDSRQGQWQRRRRLDGALNRVPVGFYQKVWKVLQKCHGLSVEGFVLPSSTTREMTPGEIKFSVHVESVLNRVPQPEYRQLLVEAILVLTMLADIEIHSIGSIIAVEKIVHIANDLFLQEQKTLGADDTMLAKDPASGICTLLYDSAPSGRFGTMTYLSKAAATYVQEFLPHSICAMQ [PHKA1]
- solubility change mitosis (log2) (HeLa Kyoto [1]): -0.332
- solubility in G1/S (log2) (HeLa Kyoto [2]): 0.037

Sequence: MAANSSGQGFQNKNRVAILAELDKEKRKLLMQNQSSTNHPGASIALSRPSLNKDFRDHAEQQHIAAQQKAALQHAHAHSSGYFITQDSAFGNLILPVLPRLDPE [INIP]
- solubility change mitosis (log2) (HeLa Kyoto [1]): 0.407
- solubility in G1/S (log2) (HeLa Kyoto [2]): -0.135

Sequence: MADLHRQLQEYLAQGKAGGPAAAEPLLAAEKAEEPGDRPAEEWLGRAGLRWTWARSPAESAAAGLTCLPSVTRGQRLAAGGGCLLLAALCFGLAALYAPVLLLRARKFALLWSLGSALALAGSALLRGGAACGRLLRCEEAPSRPALLYMAALGATLFAALGLRSTLLTVLGAGAQVAALLAALVGLLPWGGGTALRLALGRLGRGAGLAKVLPV [SFT2D3]
- solubility change mitosis (log2) (HeLa Kyoto [1]): -0.136
- solubility in G1/S (log2) (HeLa Kyoto [2]): -0.165

Sequence: MSDRKAVIKNADMSEDMQQDAVDCATQAMEKYNIEKDIAAYIKKEFDKKYNPTWHCIVGRNFGSYVTHETKHFIYFYLGQVAILLFKSG [DYNLL2]
- solubility change mitosis (log2) (HeLa Kyoto [1]): 0.249
- solubility in G1/S (log2) (HeLa Kyoto [2]): -0.415

Sequence: MAQKENSYPWPYGRQTAPSGLSTLPQRVLRKEPVTPSALVLMSRSNVQPTAAPGQKVMENSSGTPDILTRHFTIDDFEIGRPLGKGKFGNVYLAREKKSHFIVALKVLFKSQIEKEGVEHQLRREIEIQAHLHHPNILRLYNYFYDRRRIYLILEYAPRGELYKELQKSCTFDEQRTATIMEELADALMYCHGKKVIHRDIKPENLLLGLKGELKIADFGWSVHAPSLRRKTMCGTLDYLPPEMIEGRMHNEKVDLWCIGVLCYELLVGNPPFESASHNETYRRIVKVDLKFPASVPMGAQDLISKLLRHNPSERLPLAQVSAHPWVRANSRRVLPPSALQSVA [AURKB]
- solubility change mitosis (log2) (HeLa Kyoto [1]): -0.11
- solubility in G1/S (log2) (HeLa Kyoto [2]): -1.2

Sequence: MTYAYLFKYIIIGDTGVGKSCLLLQFTDKRFQPVHDLTIGVEFGARMVNIDGKQIKLQIWDTAGQESFRSITRSYYRGAAGALLVYDITRRETFNHLTSWLEDARQHSSSNMVIMLIGNKSDLESRRDVKREEGEAFAREHGLIFMETSAKTACNVEEAFINTAKEIYRKIQQGLFDVHNEANGIKIGPQQSISTSVGPSASQRNSRDIGSNSGCC [RAB2B]
- solubility change mitosis (log2) (HeLa Kyoto [1]): -0.115
- solubility in G1/S (log2) (HeLa Kyoto [2]): -0.221

Sequence: MEPPMEPSGGEQEPGAVRFLDLPWEDVLLPHVLNRVPLRQLLRLQRVSRAFRSLVQLHLAGLRRFDAAQVGPQIPRAALARLLRDAEGLQELALAPCHEWLSDEDLVPVLARNPQLRSVALGGCGQLSRRALGALAEGCPRLQRLSLAHCDWVDGLALRGLADRCPALEELDLTACRQLKDEAIVYLAQRRGAGLRSLSLAVNANVGDAAVQELARNCPELHHLDLTGCLRVGSDGVRTLAEYCPVLRSLRVRHCHHVAESSLSRLRKRGVDIDVEPPLHQALVLLQDMAGFAPFVNLQV [FBXL15]
- solubility change mitosis (log2) (HeLa Kyoto [1]): -0.195
- solubility in G1/S (log2) (HeLa Kyoto [2]): 0.189

Sequence: MASVRIREAKEGDCGDILRLIRELAEFEKLSDQVKISEEALRADGFGDNPFYHCLVAEILPAPGKLLGPCVVGYGIYYFIYSTWKGRTIYLEDIYVMPEYRGQGIGSKIIKKVAEVALDKGCSQFRLAVLDWNQRAMDLYKALGAQDLTEAEGWHFFCFQGEATRKLAGK [SAT2]
- solubility change mitosis (log2) (HeLa Kyoto [1]): -0.259
- solubility in G1/S (log2) (HeLa Kyoto [2]): 0.139
